From publication doi:10.1101/2023.12.11.571162 (2023) come the findings set out here.

Common to all, as to assay: BLI
Test [1] has as its target anti-LHFPL5.
Test [2] addresses 39G7.
Test [3] addresses 8D1.

Chain of 8D1 (Q99PJ1 27-1943): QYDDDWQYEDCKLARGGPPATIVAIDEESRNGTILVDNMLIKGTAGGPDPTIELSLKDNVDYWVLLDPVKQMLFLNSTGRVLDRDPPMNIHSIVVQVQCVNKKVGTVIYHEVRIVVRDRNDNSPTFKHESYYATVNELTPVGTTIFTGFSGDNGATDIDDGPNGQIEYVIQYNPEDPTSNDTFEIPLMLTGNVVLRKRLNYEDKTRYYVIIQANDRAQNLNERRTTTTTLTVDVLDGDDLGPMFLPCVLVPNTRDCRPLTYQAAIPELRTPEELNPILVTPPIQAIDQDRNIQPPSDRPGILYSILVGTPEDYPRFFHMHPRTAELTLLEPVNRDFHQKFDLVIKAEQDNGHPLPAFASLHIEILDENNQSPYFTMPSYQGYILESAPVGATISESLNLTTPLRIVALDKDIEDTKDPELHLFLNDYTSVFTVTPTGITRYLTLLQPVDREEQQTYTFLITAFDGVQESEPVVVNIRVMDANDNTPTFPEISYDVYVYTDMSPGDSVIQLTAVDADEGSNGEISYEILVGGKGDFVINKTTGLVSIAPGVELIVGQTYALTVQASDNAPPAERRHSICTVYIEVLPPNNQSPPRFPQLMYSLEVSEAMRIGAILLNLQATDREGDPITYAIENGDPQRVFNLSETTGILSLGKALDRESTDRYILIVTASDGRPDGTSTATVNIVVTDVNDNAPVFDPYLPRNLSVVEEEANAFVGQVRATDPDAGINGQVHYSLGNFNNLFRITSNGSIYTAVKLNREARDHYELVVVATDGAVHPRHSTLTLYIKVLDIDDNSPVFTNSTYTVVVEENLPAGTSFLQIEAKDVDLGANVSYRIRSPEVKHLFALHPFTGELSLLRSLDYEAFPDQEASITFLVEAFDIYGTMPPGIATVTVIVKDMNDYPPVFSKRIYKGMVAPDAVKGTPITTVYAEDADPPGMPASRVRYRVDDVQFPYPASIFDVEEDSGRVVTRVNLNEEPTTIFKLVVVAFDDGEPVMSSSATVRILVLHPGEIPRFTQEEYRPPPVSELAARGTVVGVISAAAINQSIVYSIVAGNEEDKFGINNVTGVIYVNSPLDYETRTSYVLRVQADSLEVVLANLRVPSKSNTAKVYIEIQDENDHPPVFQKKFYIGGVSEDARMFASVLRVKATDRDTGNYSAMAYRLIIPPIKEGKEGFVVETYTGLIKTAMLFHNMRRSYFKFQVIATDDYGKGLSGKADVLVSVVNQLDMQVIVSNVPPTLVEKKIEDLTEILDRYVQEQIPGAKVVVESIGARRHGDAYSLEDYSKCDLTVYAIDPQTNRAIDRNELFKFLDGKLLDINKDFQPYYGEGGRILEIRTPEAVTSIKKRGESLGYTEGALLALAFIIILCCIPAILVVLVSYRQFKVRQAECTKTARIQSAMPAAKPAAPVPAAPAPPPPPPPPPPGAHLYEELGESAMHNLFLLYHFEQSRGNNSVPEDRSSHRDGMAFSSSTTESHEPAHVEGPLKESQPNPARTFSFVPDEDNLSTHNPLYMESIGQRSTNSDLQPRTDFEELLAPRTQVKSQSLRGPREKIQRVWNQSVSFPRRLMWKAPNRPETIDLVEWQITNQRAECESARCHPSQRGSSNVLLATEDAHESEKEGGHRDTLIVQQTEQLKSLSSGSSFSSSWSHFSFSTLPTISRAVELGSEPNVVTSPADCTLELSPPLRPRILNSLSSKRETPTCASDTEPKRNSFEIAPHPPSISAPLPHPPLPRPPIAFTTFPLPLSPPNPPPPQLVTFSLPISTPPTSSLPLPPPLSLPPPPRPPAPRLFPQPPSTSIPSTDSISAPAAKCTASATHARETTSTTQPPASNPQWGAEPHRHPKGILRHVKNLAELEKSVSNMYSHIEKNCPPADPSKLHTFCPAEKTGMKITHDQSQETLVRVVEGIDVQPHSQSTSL
Chain of 39G7 (Q99PJ1 27-1943): as above

B1: recombinant lipoma HMGIC fusion partner-like protein 5 (LHFPL5), Mus musculus, strep-tagged construct co-expressed with PCDH15 (natural protein)
chain: MVKLLPAQEAAKIYHTNYVRNSRAVGVMWGTLTICFSVLVMALFIQPYWIGDSVSTPQAGYFGLFSYCVGNVLSSELICKGGPLDFSSIPSRAFKTAMFFVALAMFLIIGSIICFSLFFVCNTATVYKICAWMQLAAATGLMIGCLVYPDGWDSSEVRRMCGEQTGKYTLGHCTIRWAFMLAILSIGDALILSFLAFVLGYRQDKLLPDDYKADGNEEV
Turning to B1, in test [1], binding was put at a Kd of 1 nM and the koff came out at 5e-05 s⁻¹.

B2: recombinant protocadherin-15 (PCDH15), Mus musculus, His-tagged construct co-expressed with LHFPL5 (natural protein)
chain: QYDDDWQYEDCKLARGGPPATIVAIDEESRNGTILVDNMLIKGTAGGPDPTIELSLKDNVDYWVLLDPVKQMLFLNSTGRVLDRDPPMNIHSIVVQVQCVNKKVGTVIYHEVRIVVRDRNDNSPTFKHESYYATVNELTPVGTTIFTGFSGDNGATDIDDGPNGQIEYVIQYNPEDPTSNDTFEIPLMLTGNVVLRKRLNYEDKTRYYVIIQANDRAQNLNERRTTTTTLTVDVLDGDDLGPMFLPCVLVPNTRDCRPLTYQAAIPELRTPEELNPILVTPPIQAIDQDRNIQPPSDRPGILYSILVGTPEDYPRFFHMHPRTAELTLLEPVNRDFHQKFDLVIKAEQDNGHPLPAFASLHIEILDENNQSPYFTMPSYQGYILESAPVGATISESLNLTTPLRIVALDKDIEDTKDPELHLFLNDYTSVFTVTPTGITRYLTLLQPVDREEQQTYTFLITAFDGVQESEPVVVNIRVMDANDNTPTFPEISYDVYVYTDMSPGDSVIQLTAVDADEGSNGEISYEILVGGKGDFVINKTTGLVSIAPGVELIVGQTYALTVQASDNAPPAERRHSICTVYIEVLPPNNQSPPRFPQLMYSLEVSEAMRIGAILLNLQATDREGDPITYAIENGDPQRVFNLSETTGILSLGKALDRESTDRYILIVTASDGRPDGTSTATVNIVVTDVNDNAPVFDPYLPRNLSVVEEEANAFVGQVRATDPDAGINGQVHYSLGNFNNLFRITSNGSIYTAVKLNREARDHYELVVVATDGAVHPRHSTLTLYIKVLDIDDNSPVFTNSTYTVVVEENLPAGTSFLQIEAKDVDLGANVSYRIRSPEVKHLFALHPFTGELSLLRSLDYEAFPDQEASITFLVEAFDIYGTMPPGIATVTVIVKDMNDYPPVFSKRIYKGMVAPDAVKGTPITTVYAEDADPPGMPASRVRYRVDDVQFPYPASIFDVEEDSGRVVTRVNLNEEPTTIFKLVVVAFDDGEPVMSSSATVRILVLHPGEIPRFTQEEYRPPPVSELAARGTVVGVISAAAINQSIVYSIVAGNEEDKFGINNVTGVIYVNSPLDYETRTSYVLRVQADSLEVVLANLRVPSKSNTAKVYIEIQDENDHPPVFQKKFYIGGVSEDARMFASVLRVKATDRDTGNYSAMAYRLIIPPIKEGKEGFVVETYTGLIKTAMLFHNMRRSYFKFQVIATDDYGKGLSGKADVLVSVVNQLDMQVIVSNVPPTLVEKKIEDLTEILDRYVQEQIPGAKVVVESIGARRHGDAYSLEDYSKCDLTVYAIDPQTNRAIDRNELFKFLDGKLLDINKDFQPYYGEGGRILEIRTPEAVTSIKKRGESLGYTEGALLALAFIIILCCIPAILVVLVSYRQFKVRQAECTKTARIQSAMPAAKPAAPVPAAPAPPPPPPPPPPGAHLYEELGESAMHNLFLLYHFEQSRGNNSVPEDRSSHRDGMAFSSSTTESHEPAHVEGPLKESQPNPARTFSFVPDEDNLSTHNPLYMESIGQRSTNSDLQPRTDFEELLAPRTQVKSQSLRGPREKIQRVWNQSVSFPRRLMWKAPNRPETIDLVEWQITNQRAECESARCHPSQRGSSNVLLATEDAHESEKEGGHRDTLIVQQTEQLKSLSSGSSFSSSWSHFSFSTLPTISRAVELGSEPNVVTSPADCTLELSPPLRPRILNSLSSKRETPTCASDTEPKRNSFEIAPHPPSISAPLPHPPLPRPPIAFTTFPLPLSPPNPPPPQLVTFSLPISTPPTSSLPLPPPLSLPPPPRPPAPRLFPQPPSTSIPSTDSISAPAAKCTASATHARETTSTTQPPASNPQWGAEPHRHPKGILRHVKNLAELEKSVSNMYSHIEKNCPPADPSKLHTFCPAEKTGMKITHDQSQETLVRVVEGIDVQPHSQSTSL
In the case of B2, the Kd in test [2] stood at 0.2 nM; in test [3], 0.05 nM. In addition, the figures for the koff in test [2] and in test [3] were 2e-05 s⁻¹ and 3e-05 s⁻¹, respectively.
